Reference: US20220168346A1 (published 2022)
Blank lines part the entries; values can stand above or below the molecule they belong to.

Assays:
[1] = target: C*07:01/gp100479-487 multimer (human; mouse) (UniProt P01901); assay: pHLA multimer staining of TILs before stimulation (day 0), flow cytometry
[2] = target: C*07:01/gp100479-487 multimer (human; mouse) (UniProt P01901); assay: pHLA multimer staining of TILs after one peptide-specific stimulation with C*07:01-artificial APCs (day 14), flow cytometry
[3] = target: T1, gp100 peptide on HLA-C*07:01 (human); assay: multimer staining
T1 peptide: RYGSFSVTL
Experimental: T cells (1×10⁵) were incubated for 30 minutes at 37° C. in the presence of 50 nM dasatinib (LC laboratories). The cells were then washed and incubated with 5-10 μg/ml of multimer for 30 minutes at room temperature, and R-phycoerythrin-conjugated AffiniPure Fab fragment goat anti-mouse IgG1 (Jackson ImmunoResearch Laboratories) was added for 15 minutes at 4° C. Next, the cells were washed three times and costained with an anti-CD8 mAb for 15 minutes at 4° C. Dead cells were finally discriminated using the LIVE/DEAD Fixable Dead Cell Stain kit.

percentage of multimer+ cells in CD8+ T cells [1]: 0.14% | percentage of multimer+ cells in CD8+ T cells [2]: 1.2%
Molecule: C*07:01+ melanoma TILs

binding result [3]: recognises
B1: C*07:01/gp100479-487 TCR (TCR, V domains shown)
Valpha: DQQVKQNSPSLSVQEGRISILNCDYTNSMFDYFLWYKKYPAEGPTFLISISSIKDKNEDGRFTVFLNKSAKHLSLHIVPSQPGDSAVYFCAANSGNTPLVFGKGTRLSVIA
Vbeta: EPEVTQTPSHQVTQMGQEVILRCVPISNHLYFYWYRQILGQKVEFLVSFYNNEISEKSEIFDDQFSVERPDGSNFTLKIRSTKLEDSAMYFCASSLMGGGNTIYFGEGSWLTVV
